Here are results for 17 molecules from patent US6528620B1, “Sid-polyamide fusions: a potent method of regulating gene expression” (University of Utah Research Foundation, priority 1999, dated 2003).

Data set [1] concerns the target VP16PAH2 (amino acids 251-404 of mSin3A encoding the PAH2 domain fused to the VP16 activation domain) (UniProt Q60520). Nature of the data set: directed yeast two-hybrid assay (LexA-SID with VP16PAH2, beta-galactosidase).
The target in another data set is T1, PAH2 domain of mSin3A (Mus musculus, UniProt Q60520).
T1 construct: expressed in transfected cells; host or cells: S. cerevisiae strain L40
T1 sequence (Q60520 251-404): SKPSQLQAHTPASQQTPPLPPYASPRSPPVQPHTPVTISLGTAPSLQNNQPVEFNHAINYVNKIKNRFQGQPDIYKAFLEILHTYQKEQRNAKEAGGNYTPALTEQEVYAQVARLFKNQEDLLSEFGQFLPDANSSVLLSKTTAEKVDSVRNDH
Nature of the data set: Directed two-hybrid assay (LexA-SID fusions with VP16PAH2, quantitative β-galactosidase). The class given is cell-based. The note with it: for affinity for PAH2 relative to wild-type SID 8-20: fold higher; for interaction with PAH2 (relative β-galactosidase activity): LexA fusion with VP16PAH2 in S. cerevisiae strain L40. The source says: Cloning and Interaction Assays—Fusions to the LexA DNA binding domain were made either by polymerase chain reaction amplifying SID 1-57 and SID 1-27 using pSPMad1 or pSPMad1 (L12P/A16P) (Ayer et al., Cell 80:767-776 (1995)) as template or by inserting a double-stranded oligonucleotide cassette encoding the various SID constructs between the EcoRI and BamH1 sites of pBTM116. Hollenberg et al., Mol. Cell. Biol. 15:3813-3822 (1995). Each construct was verified by sequencing. The different LexA fusion constructs and VP16PAH2 (Ayer et al., Cell 80:767-776 (1995)) were introduced into the S. cerevisiae strain L40 by lithium acetate transformation. Ausubel et al. eds., Current Protocols in Molecular Biology, John Wiley & Sons, Inc., New York (1995). Quantitative β-galactosidase assays were performed from three independent colonies in triplicate from liquid cultures. Ausubel et al. eds., Current Protocols in Molecular Biology, John Wiley & Sons, Inc., New York (1995). For each measurement the standard deviation was less than 10%.
We have used a directed two-hybrid assay to measure the relative affinity of the SID and various SID mutants for PAH2. Briefly, SID molecules based on the sequence of human Mad1 were fused to the DNA binding domain of bacterial LexA, and the PAH2 domain of mSin3A was fused to the transcriptional activation domain of VP16. Following introduction into the S. cerevisiae strain L40, relative affinity was measured by quantitative analysis of the β-galactosidase activity generated from an integrated LexA-dependent LacZ reporter gene.

Data set [2] in a line: Circular dichroism (CD) spectroscopy of SID peptides in TFE. It is filed as physicochemical. The note with it: for ability to adopt α-helical structure in TFE: increasing TFE concentrations (1, 20, 50%); for α-helical content: 50 μM peptide, 25° C. The procedure: Circular Dichroism (CD) Spectroscopy—CD samples contained 50 μM of peptide, 1×phosphate-buffered saline, and the percentage of trifluoroethanol (TFE, Sigma) indicated in FIG. 4. CD spectra were collected on an Aviv 62DS spectrophotometer from 280 to 195 nm at 25° C. using a cell with a 0.1-cm pathlength. The reported spectra are the average of 15 consecutive runs. The observed ellipticity was converted to mean residue molar ellipticity [Θ] (deg cm^2 dmol^−1) using the relationship [Θ]=Θ/(Cr 1) where Θ is the observed ellipticity, 1 is the pathlength, and Cr is the mean residue molar concentration. Fractional helicities were calculated as described using values for [Θ]^0222 and [Θ]^100222, corresponding to 0% and 100% helical content at 222 nm, of −2000 and −28,400 deg cm^2 dmol^−1, respectively. Wu et al., Biochemistry 20:5766-570 (1981).
To test directly if the SID could adopt an α-helical structure, we measured the helical content of wild-type SID and mutant SID peptides using circular dichroism (CD) spectroscopy. […] Therefore, spectra for the wild-type and mutant SID peptides were measured in the solvent TFE, which is commonly used to stabilize α-helical conformation in peptides that have an inherent helical propensity. Sonnichsen et al., Biochemistry 31 :8790-8798 (1992), Jasanoff and Fersht, Biochemistry 33:2129-2135 (1994). […] At increasing TFE concentrations, the wild-type peptide adopts an α-helical structure as indicated by the strong negative peaks at 208 and 222 nm. In 20% TFE the SID is approximately 40% α-helical. This percentage increases to approximately 60% in 50% TFE.
A general note: Circular dichroism is widely used to follow secondary structure.

Where no end group is shown, it is not given here.

“LexA fused to SID 8-20 E14A (from UniProt P0A7C2 1-202)”: the fold higher affinity than wild-type SID 8-20 (relative beta-galactosidase activity) in data set [1] worked out at 2 fold.

Regarding “D17A: minimal SID 8-20 with single mutation D17A, LexA fusion (NIQMLLEAAAYLE; also: LexA fusion; UniProt Q05195 8-20, looked up, variant D17A)”, the “affinity for PAH2 relative to wild-type SID 8-20” value in the data set with PAH2 domain of mSin3A (yeast strain L40) was “approximately 2 fold”.

For “Tyr-18: minimal SID 8-20 with Tyr-18 mutated to aspartic acid, LexA fusion (NIQMLLEAADDLE; also: LexA fusion; UniProt Q05195 8-20, looked up, variant Y18D)”, the “interaction with PAH2 (relative β-galactosidase activity)” value with PAH2 domain of mSin3A is reported as “severely impaired binding”.

Regarding “Q10A: minimal SID 8-20 with single mutation Q10A, LexA fusion (NIAMLLEAADYLE; also: LexA fusion; UniProt Q05195 8-20, looked up, variant Q10A)”, in the data set with PAH2 domain of mSin3A (yeast strain L40), the “affinity for PAH2 relative to wild-type SID 8-20” value is listed as “approximately 2 fold”.

Turning to “GGGMNIQMPLEAPDYLE [L12P/A16P SID, same mutation also tested as LexA fusion in two-hybrid]”, the “ability to adopt α-helical structure in TFE” value (from here on “ability”) in data set [2] is reported as “cannot adopt an α-helical structure”; in data set [2] (listed as L12P/A16P), “remained unchanged with increasing concentrations of TFE”; in data set [2] (listed as double proline mutant SID peptide), “incapable of α-helix formation”. In addition, the “interaction with PAH2 (relative β-galactosidase activity)” value with PAH2 domain of mSin3A is listed as “fails to interact with PAH2”; in the data set with PAH2 domain of mSin3A (listed as L12P/A16P), “failed to interact with PAH2”.

For “GGGMNIQMLLEDADYLE [A15D SID, same mutation also tested as LexA-SID 8-20 fusion]”, in data set [2] (50% TFE), the “CD spectrum / helicity compared with wild-type SID” value is “slightly less helical than the wild-type SID”. In addition, the “reduction of helicity relative to wild-type” value in data set [2] (50% TFE) is on record as “approximately 40%”. Further, the figures for the “ability” value in data set [2] and in data set [2] (listed as A15E) were “retain helical structure” and “retains helical structure”, respectively. The results for the “interaction with PAH2 (relative β-galactosidase activity)” value with PAH2 domain of mSin3A, with PAH2 domain of mSin3A (listed as A15E) and with PAH2 domain of mSin3A (listed as Ala-15) were “unable to interact with PAH2”, “fails to interact with PAH2” and “severely impaired binding”, respectively.

Consider “E14A: minimal SID 8-20 with single mutation E14A, LexA fusion (NIQMLLAAADYLE; also: LexA fusion; UniProt Q05195 8-20, looked up, variant E14A)”, for which the “affinity for PAH2 relative to wild-type SID 8-20” value in the data set with PAH2 domain of mSin3A (yeast strain L40) is listed as “approximately 2 fold”.

On to “QLOR: minimal thirteen amino acid SID (8-20) with mutation at Gln-10, LexA fusion (NIRMLLEAADYLE; also: LexA fusion; UniProt Q05195 8-20, looked up, variant Q10R)”, for which the “reduction of binding to PAH2 relative to wild-type SID 8-20” value in the data set with PAH2 domain of mSin3A (yeast strain L40, fold reduced) worked out at 4 fold.

In data set [1], “LexA fused to SID 8-20 Q10A/E14A/D17A (from UniProt P0A7C2 1-202)” gave a fold better binding than wild-type SID of 2 fold.

With “Q10A/E14A/D17A: minimal SID 8-20 containing all three alanine mutations, LexA fusion (NIAMLLAAAAYLE; also: LexA fusion; UniProt Q05195 8-20, looked up, variant Q10A E14A D17A)”, the “affinity for PAH2 relative to wild-type SID 8-20” value in the data set with PAH2 domain of mSin3A (yeast strain L40) is recorded as “two-fold”.

For “GGGMNIQMLLEAADYLE [wild-type SID peptide]”, the α-helical content entry in data set [2] (20% TFE) is listed as “approximately 40%”; in data set [2] (50% TFE), “approximately 60%”. For the same molecule, in data set [2] (aqueous solution containing 1% TFE), the secondary structure entry is recorded as “lacks secondary structure”. The “ability” value in data set [2] is reported as “able to adopt an α-helical conformation”.

Molecule “LexA fused to SID 8-20 Q10A (from UniProt P0A7C2 1-202)” had a fold higher affinity than wild-type SID 8-20 (relative beta-galactosidase activity) in data set [1] of 2 fold.

“LexA fused to SID 8-20 Q10R (from UniProt P0A7C2 1-202)” returned a fold reduction of binding against wild-type SID 8-20 (relative beta-galactosidase activity) in data set [1] of 4 fold.

Molecule “LexA fused to SID 8-20 D17A (from UniProt P0A7C2 1-202)” displayed a fold higher affinity than wild-type SID 8-20 (relative beta-galactosidase activity) in data set [1] of 2 fold.

Take “GGGMNIQMLLEAADYDE [L19D SID, same mutation also tested as LexA-SID 8-20 fusion]”: the “CD spectrum / helicity compared with wild-type SID” value in data set [2] (50% TFE) is given as “nearly identical to that collected for the wild-type SID”. In data set [2] (50% TFE), the “reduction of helicity relative to wild-type” value is recorded as about 5%. Also, the “ability” value was “retain helical structure” in data set [2] and “retains helical structure” in data set [2] (listed as L19D). Further, the “interaction with PAH2 (relative β-galactosidase activity)” value with PAH2 domain of mSin3A is given as “unable to interact with PAH2”; with PAH2 domain of mSin3A (listed as L19D), “fails to interact with PAH2”; with PAH2 domain of mSin3A (listed as Leu-19) it was “severely impaired binding”.

B1: NIQMLLEAADYLE (protein)
chain: MKALTARQQEVFDLIRDHISQTGMPPTRAEIAQRLGFRSPNAAEEHLKALARKGVIEIVSGASRGIRLLQEEEEGLPLVGRVAAGEPLLAQQHIEGHYQVDPSLFKPNADFLLRVSGMSMKDIGIMDGDLLAVHKTQDVRNGQVVVARIDDEVTVKRLKKQGNKVELLPENSEFKPIVVDLRQQSFTIEGLAVGVIRNGDWLNIQMLLEAADYLE
B1: in the data set with PAH2 domain of mSin3A, the “interaction with PAH2 (relative β-galactosidase activity)” value was “necessary and sufficient for interaction”.

B2: SID 1-57: LexA DNA binding domain fused to amino acids 1-57 of Mad1 (protein)
chain: MKALTARQQEVFDLIRDHISQTGMPPTRAEIAQRLGFRSPNAAEEHLKALARKGVIEIVSGASRGIRLLQEEEEGLPLVGRVAAGEPLLAQQHIEGHYQVDPSLFKPNADFLLRVSGMSMKDIGIMDGDLLAVHKTQDVRNGQVVVARIDDEVTVKRLKKQGNKVELLPENSEFKPIVVDLRQQSFTIEGLAVGVIRNGDWLMAAAVRMNIQMLLEAADYLERREREAEHGYASMLPYNNKDRDALKRRNKSKKNNSSS
As to B2, the “interaction with PAH2 (relative β-galactosidase activity)” value with PAH2 domain of mSin3A is reported as “sufficient for interaction”.
